The supplement of paper PMC6379048

Experiments:
Test in all cases: Kd (EC50 corrected by depletion factor)
[1] = molecular target: AGO1 (UniProt Q9UL18)
In short: (§1)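 Free RNA oligos (0 nM to 30 μM) competed for 1 h at 4°C in HEK293-FT lysate (2.5 mg protein/well) before a 30 min, 4°C pulldown with the same oligos on NHS-Sepharose beads. Bound proteins were quantified by label-free LC-MS/MS and normalised to the control. Kd was found by multiplying EC50, from a four-parameter log-logistic fit, by a protein-dependent depletion factor.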

[2] = molecular target: T1, C1QBP (UniProt Q07021)
T1 sequence: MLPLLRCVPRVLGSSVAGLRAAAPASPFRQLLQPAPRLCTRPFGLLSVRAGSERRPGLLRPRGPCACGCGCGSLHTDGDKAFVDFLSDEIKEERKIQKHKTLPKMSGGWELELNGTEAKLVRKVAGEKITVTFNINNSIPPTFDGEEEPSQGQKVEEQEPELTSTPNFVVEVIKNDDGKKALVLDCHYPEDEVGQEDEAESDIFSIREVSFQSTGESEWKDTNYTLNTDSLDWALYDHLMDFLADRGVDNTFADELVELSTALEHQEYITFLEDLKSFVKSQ
In short: as §1

[3] = molecular target: CSNK2A1 (UniProt P68400)
In short: as §1

[4] = molecular target: T2, ZRANB2 (UniProt O95218)
T2 sequence: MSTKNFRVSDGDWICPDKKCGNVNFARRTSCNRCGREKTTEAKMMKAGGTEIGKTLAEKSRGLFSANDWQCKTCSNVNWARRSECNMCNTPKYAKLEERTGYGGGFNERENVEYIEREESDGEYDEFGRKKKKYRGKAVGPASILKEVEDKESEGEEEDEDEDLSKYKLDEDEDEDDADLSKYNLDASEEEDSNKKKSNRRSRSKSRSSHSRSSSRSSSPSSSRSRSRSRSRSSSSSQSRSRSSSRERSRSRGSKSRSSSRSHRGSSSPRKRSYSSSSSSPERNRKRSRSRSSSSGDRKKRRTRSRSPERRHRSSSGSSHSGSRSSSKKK
In short: as §1

[5] = molecular target: HNRNPU (UniProt Q00839)
In short: as §1

[6] = molecular target: MRPL11 (UniProt Q9Y3B7)
In short: as §1

[7] = molecular target: MRPL14 (UniProt Q6P1L8)
In short: as §1

[8] = molecular target: MRPL19 (UniProt P49406)
In short: as §1

[9] = molecular target: MRPL49 (UniProt Q13405)
In short: as §1

[10] = molecular target: MRPL50 (UniProt Q8N5N7)
In short: as §1

[11] = molecular target: RPS13 (UniProt P62277)
In short: as §1

[12] = molecular target: T3, FASTKD2 (UniProt Q9NYY8)
T3 sequence: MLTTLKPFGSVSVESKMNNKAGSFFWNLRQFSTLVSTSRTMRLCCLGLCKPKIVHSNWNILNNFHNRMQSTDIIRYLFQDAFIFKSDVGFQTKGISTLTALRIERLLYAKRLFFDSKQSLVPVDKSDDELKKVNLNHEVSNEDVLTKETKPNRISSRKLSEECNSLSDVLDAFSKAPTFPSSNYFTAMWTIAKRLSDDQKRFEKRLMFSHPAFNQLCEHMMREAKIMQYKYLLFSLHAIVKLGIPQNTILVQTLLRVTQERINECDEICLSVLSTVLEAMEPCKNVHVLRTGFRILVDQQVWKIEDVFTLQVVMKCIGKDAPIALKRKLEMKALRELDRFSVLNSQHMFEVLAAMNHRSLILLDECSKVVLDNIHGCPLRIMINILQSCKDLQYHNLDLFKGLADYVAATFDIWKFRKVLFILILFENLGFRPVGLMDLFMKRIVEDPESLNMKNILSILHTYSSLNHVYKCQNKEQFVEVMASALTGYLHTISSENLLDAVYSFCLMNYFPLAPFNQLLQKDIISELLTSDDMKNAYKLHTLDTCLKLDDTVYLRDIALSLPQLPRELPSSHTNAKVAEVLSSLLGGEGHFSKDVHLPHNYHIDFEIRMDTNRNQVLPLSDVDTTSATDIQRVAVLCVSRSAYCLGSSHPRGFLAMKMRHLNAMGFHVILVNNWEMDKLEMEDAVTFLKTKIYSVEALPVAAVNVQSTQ
In short: as §1

[13] = molecular target: HNRNPA2B1 (UniProt P22626)
In short: as §1

[14] = molecular target: MRPS2 (UniProt Q9Y399)
In short: as §1

[15] = molecular target: MRPS23 (UniProt Q9Y3D9)
In short: as §1

[16] = molecular target: MRPS25 (UniProt P82663)
In short: as §1

Sequence of HNRNPA2B1 (P22626 whole entry): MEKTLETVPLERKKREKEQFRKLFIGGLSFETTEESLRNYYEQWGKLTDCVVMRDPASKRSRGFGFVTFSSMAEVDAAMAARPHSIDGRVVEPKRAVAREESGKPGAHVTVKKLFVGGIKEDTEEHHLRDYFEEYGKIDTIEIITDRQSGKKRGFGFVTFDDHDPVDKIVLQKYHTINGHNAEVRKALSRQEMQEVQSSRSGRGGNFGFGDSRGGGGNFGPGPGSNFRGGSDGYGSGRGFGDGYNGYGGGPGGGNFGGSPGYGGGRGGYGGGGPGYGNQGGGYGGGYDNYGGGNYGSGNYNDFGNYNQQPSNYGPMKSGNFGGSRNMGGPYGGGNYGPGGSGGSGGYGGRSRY
Sequence of CSNK2A1 (P68400 whole entry, looked up): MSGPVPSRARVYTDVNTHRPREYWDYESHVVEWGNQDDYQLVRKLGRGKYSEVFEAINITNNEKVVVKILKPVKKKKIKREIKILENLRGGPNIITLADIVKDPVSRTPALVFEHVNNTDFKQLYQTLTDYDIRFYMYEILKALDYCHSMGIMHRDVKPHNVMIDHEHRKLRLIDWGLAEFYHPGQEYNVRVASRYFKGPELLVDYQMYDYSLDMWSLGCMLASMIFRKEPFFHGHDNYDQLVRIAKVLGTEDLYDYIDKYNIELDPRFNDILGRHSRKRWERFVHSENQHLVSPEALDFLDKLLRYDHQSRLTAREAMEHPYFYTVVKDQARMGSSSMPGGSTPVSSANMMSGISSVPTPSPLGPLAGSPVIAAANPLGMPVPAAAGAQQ
Sequence of HNRNPU (Q00839 whole entry): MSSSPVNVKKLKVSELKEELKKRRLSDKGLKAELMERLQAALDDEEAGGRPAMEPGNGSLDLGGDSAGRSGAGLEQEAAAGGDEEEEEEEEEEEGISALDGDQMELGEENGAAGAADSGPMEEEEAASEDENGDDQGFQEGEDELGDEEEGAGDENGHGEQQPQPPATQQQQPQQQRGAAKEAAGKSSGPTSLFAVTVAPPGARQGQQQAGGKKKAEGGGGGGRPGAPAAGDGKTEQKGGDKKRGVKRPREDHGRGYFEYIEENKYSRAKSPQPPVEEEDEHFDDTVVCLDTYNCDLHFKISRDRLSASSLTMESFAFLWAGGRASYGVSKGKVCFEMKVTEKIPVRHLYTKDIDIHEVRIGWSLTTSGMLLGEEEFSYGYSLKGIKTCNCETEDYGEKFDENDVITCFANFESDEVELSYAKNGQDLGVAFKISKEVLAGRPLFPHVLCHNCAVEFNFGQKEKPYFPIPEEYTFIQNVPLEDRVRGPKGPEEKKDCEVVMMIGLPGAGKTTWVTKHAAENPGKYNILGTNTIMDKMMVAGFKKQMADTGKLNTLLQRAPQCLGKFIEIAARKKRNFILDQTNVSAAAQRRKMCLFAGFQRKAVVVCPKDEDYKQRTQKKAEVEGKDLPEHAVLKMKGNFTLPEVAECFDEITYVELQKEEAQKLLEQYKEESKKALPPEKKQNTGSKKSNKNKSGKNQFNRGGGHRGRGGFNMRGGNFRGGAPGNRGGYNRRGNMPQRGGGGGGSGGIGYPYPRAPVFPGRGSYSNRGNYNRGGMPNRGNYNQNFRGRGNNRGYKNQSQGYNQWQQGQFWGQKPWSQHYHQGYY

## AAUAAA
[1]
  Kd: 78.7 nM
[2]
  Kd: 477 nM
[3]
  Kd: 78.6 nM
[4]
  Kd: 217 nM

## CUGUCCU
[5]
  Kd: 90.1 nM
[6]
  Kd: 53.7 nM
[7]
  Kd: 53.5 nM
[8]
  Kd: 54.1 nM
[9]
  Kd: 37 nM
[10]
  Kd: 149 nM
[11]
  Kd: 39.9 nM

## UAUUUAU
[12]
  Kd: 3.89 µM
[13]
  Kd: 4.9 µM
[14]
  Kd: 27.7 nM
[15]
  Kd: 15.6 nM
[16]
  Kd: 12.4 nM
